Patent US20240383953A1, “NOVEL NAN[…] NANOG PRION-LIKE REPEATS” (BAYLOR COLLEGE OF MEDICINE, priority 2021, published 2024)

Legend:
[1] = ThT fluorescence aggregation kinetics of NANOG CTD; type: physicochemical, human
[2] = Gel-like condensate formation of NANOG CTD; type: physicochemical, human; details: absence of crowding agents

B1: NANOG CTD: C-terminal domain construct of human NANOG, contains the WR prion-like domain (protein)
chain: QKNNWPKNSNGVTQKASAPTYPSLYSSYHQGCLVNPTGNLPMWSNQTWNNSTWSNQTQNIQSWSNHSWNTQTWCTQSWNNQAWNSPFYNCGEESLQSCMQFQPNSPASDLEAALEAAGEGLNVIQQTTRYFSTPQTMDLFLNYSMNMQPEDV
ThT aggregation time constant (1/R) ([1]; 1.2 μM CTD (n=9)): 4.8 ± 0.2 min
ThT aggregation time constant (1/R) ([1]; 2.4 μM CTD (n=6)): 9.5 ± 0.1 min
concentration at which gel-like condensates form [2]: 5 µM
